We go through 36 variants from the Human Domainome abundance scans (Beltran et al. 2025).

± gives the uncertainty stated by the source.

B1: Glucocorticoid receptor, residues 419 to 494; numbered along this chain, P04150 (parent)
chain: KLCLVCSDEASGCHYGVLTCGSCKVFFKRAVEGQHNYLCAGRNDCIIDKIRRKNCPACRYRKCLQAGMNLEARKTK

The data set covers variants of B1. Description: abundance fitness (aPCA) (normalised: wild type 0, dead -1); higher = more abundant; growth selection in yeast, the domain comes from the species named. The settings on record: Homo sapiens.
As to KLCLVCSDEASGCHYGVLTCGSCKVFFKRAVEFQHNYLCAGRNDCIIDKIRRKNCPACRYRKCLQAGMNLEARKTK, the abundance fitness was -0.052 ± 0.083.
Consider KLCLVCSDEASGCHYGVLTCGSCKVFFKRAVEKQHNYLCAGRNDCIIDKIRRKNCPACRYRKCLQAGMNLEARKTK, for which the abundance fitness amounted to 0.034 ± 0.06.
Then KLCLVCSDEASGCHYGVLTCGSCKVFFKRAVEEQHNYLCAGRNDCIIDKIRRKNCPACRYRKCLQAGMNLEARKTK, with -0.039 ± 0.052; and KLCLVCSDEASGCHYGVLTCGSCKVFFKRAVEYQHNYLCAGRNDCIIDKIRRKNCPACRYRKCLQAGMNLEARKTK, with 0.035 ± 0.065.
For KLCLVCSDEASGCHYGVLTCGSCKVFFKRAVEWQHNYLCAGRNDCIIDKIRRKNCPACRYRKCLQAGMNLEARKTK, the abundance fitness is -0.135 ± 0.038.
Take KLCLVCSDEASGCHYGVLTCGSCKVFFKRAVETQHNYLCAGRNDCIIDKIRRKNCPACRYRKCLQAGMNLEARKTK: the abundance fitness is -0.139 ± 0.055.
Under KLCLVCSDEASGCHYGVLTCGSCKVFFKRAVEMQHNYLCAGRNDCIIDKIRRKNCPACRYRKCLQAGMNLEARKTK stands -0.052 ± 0.049; under KLCLVCSDEASGCHYGVLTCGSCKVFFKRAVESQHNYLCAGRNDCIIDKIRRKNCPACRYRKCLQAGMNLEARKTK, -0.045 ± 0.04.
Under KLCLVCSDEASGCHYGVLTCGSCKVFFKRAVEAQHNYLCAGRNDCIIDKIRRKNCPACRYRKCLQAGMNLEARKTK stands -0.063 ± 0.037; under KLCLVCSDEASGCHYGVLTCGSCKVFFKRAVEVQHNYLCAGRNDCIIDKIRRKNCPACRYRKCLQAGMNLEARKTK, -0.044 ± 0.034; under KLCLVCSDEASGCHYGVLTCGSCKVFFKRAVECQHNYLCAGRNDCIIDKIRRKNCPACRYRKCLQAGMNLEARKTK, -0.176 ± 0.065.
Under KLCLVCSDEASGCHYGVLTCGSCKVFFKRAVEIQHNYLCAGRNDCIIDKIRRKNCPACRYRKCLQAGMNLEARKTK stands -0.121 ± 0.095.
Regarding KLCLVCSDEASGCHYGVLTCGSCKVFFKRAVELQHNYLCAGRNDCIIDKIRRKNCPACRYRKCLQAGMNLEARKTK, the abundance fitness is -0.093 ± 0.035.
For KLCLVCSDEASGCHYGVLTCGSCKVFFKRAVEPQHNYLCAGRNDCIIDKIRRKNCPACRYRKCLQAGMNLEARKTK, the abundance fitness was -0.265 ± 0.059.
Under KLCLVCSDEASGCHYGVLTCGSCKVFFKRAVENQHNYLCAGRNDCIIDKIRRKNCPACRYRKCLQAGMNLEARKTK stands 0.115 ± 0.1; under KLCLVCSDEASGCHYGVLTCGSCKVFFKRAVERQHNYLCAGRNDCIIDKIRRKNCPACRYRKCLQAGMNLEARKTK, -0.048 ± 0.03; under KLCLVCSDEASGCHYGVLTCGSCKVFFKRAVEGQHCYLCAGRNDCIIDKIRRKNCPACRYRKCLQAGMNLEARKTK, -0.133 ± 0.066.
KLCLVCSDEASGCHYGVLTCGSCKVFFKRAVEGQHDYLCAGRNDCIIDKIRRKNCPACRYRKCLQAGMNLEARKTK: the abundance fitness is -0.065 ± 0.092.
Then KLCLVCSDEASGCHYGVLTCGSCKVFFKRAVEGQHAYLCAGRNDCIIDKIRRKNCPACRYRKCLQAGMNLEARKTK, with -0.012 ± 0.036; and KLCLVCSDEASGCHYGVLTCGSCKVFFKRAVEGPHNYLCAGRNDCIIDKIRRKNCPACRYRKCLQAGMNLEARKTK, with -0.114 ± 0.051.
Then KLCLVCSDEASGCHYGVLTCGSCKVFFKRAVEGIHNYLCAGRNDCIIDKIRRKNCPACRYRKCLQAGMNLEARKTK, with -0.188 ± 0.093; and KLCLVCSDEASGCHYGVLTCGSCKVFFKRAVEGWHNYLCAGRNDCIIDKIRRKNCPACRYRKCLQAGMNLEARKTK, with -0.136 ± 0.046.
Then KLCLVCSDEASGCHYGVLTCGSCKVFFKRAVEGKHNYLCAGRNDCIIDKIRRKNCPACRYRKCLQAGMNLEARKTK, with -0.035 ± 0.046.
On to KLCLVCSDEASGCHYGVLTCGSCKVFFKRAVEGRHNYLCAGRNDCIIDKIRRKNCPACRYRKCLQAGMNLEARKTK, for which the abundance fitness turned out to be 0.002 ± 0.032.
For the variant KLCLVCSDEASGCHYGVLTCGSCKVFFKRAVEGDHNYLCAGRNDCIIDKIRRKNCPACRYRKCLQAGMNLEARKTK, the abundance fitness was -0.046 ± 0.074.
Consider KLCLVCSDEASGCHYGVLTCGSCKVFFKRAVEGCHNYLCAGRNDCIIDKIRRKNCPACRYRKCLQAGMNLEARKTK, for which the abundance fitness is -0.028 ± 0.078.
Under KLCLVCSDEASGCHYGVLTCGSCKVFFKRAVEGLHNYLCAGRNDCIIDKIRRKNCPACRYRKCLQAGMNLEARKTK stands -0.099 ± 0.04; under KLCLVCSDEASGCHYGVLTCGSCKVFFKRAVEGVHNYLCAGRNDCIIDKIRRKNCPACRYRKCLQAGMNLEARKTK, -0.073 ± 0.039; under KLCLVCSDEASGCHYGVLTCGSCKVFFKRAVEGHHNYLCAGRNDCIIDKIRRKNCPACRYRKCLQAGMNLEARKTK, -0.14 ± 0.098.
KLCLVCSDEASGCHYGVLTCGSCKVFFKRAVEGYHNYLCAGRNDCIIDKIRRKNCPACRYRKCLQAGMNLEARKTK: the abundance fitness was -0.136 ± 0.095.
For the variant KLCLVCSDEASGCHYGVLTCGSCKVFFKRAVEGTHNYLCAGRNDCIIDKIRRKNCPACRYRKCLQAGMNLEARKTK, the abundance fitness was -0.064 ± 0.045.
Then KLCLVCSDEASGCHYGVLTCGSCKVFFKRAVEGEHNYLCAGRNDCIIDKIRRKNCPACRYRKCLQAGMNLEARKTK, with -0.051 ± 0.051; and KLCLVCSDEASGCHYGVLTCGSCKVFFKRAVEGNHNYLCAGRNDCIIDKIRRKNCPACRYRKCLQAGMNLEARKTK, with 0.08 ± 0.087; and KLCLVCSDEASGCHYGVLTCGSCKVFFKRAVEGAHNYLCAGRNDCIIDKIRRKNCPACRYRKCLQAGMNLEARKTK, with -0.016 ± 0.038.
As for KLCLVCSDEASGCHYGVLTCGSCKVFFKRAVEGMHNYLCAGRNDCIIDKIRRKNCPACRYRKCLQAGMNLEARKTK, the abundance fitness was found to be 0.017 ± 0.043.
Then KLCLVCSDEASGCHYGVLTCGSCKVFFKRAVEGFHNYLCAGRNDCIIDKIRRKNCPACRYRKCLQAGMNLEARKTK, with -0.256 ± 0.12.
